According to US12099068B2, “Biomarkers for graft-versus-host disease” (Incyte Corporation, priority 2018, dated 2024):

test system: plasma proteins; test: Plasma proteins modulated between baseline and day 28 in responders (CR, VGPR, PR; n = 19), Example 6 (Table 13); assay type: in vivo, human; conditions: plasma protein (OLINK NPX); responders (CR, VGPR, PR; n = 19); itacitinib 200 mg or 300 mg QD with corticosteroids; day 28 vs baseline
Method in brief: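 Longitudinal comparison, day 28 versus baseline, with steroid-naive (N=10) and steroid-refractory (N=18) patients combined. Proteins measured by OLINK proximity extension, log2 normalized protein expression. Differences tested by t tests, ANOVA, Pearson correlation, P<0.05 significant.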

Row | Molecule | Fold Change, Decreased Expression from Baseline to Day 28 | Fold Change, Increased Expression from Baseline to Day 28
1 | EGF (protein, UniProt P01133 23-1207, looked up, Pro-epidermal growth factor) Pro-epidermal growth factor: PQHWSCPEGTLAGNGNSTCVGPAPFLIFSHGNSIFRIDTEGTNYEQLVVDAGVSVIMDFHYNEKRIYWVDLERQLLQRVFLNGSRQERVCNIEKNVSGMAINWINEEVIWSNQQEGIITVTDMKGNNSHILLSALKYPANVAVDPVERFIFWSSEVAGSLYRADLDGVGVKALLETSEKITAVSLDVLDKRLFWIQYNREGSNSLICSCDYDGGSVHISKHPTQHNLFAMSLFGDRIFYSTWKMKTIWIANKHTGKDMVRINLHSSFVPLGELKVVHPLAQPKAEDDTWEPEQKLCKLRKGNCSSTVCGQDLQSHLCMCAEGYALSRDRKYCEDVNECAFWNHGCTLGCKNTPGSYYCTCPVGFVLLPDGKRCHQLVSCPRNVSECSHDCVLTSEGPLCFCPEGSVLERDGKTCSGCSSPDNGGCSQLCVPLSPVSWECDCFPGYDLQLDEKSCAASGPQPFLLFANSQDIRHMHFDGTDYGTLLSQQMGMVYALDHDPVENKIYFAHTALKWIERANMDGSQRERLIEEGVDVPEGLAVDWIGRRFYWTDRGKSLIGRSDLNGKRSKIITKENISQPRGIAVHPMAKRLFWTDTGINPRIESSSLQGLGRLVIASSDLIWPSGITIDFLTDKLYWCDAKQSVIEMANLDGSKRRRLTQNDVGHPFAVAVFEDYVWFSDWAMPSVMRVNKRTGKDRVRLQGSMLKPSSLVVVHPLAKPGADPCLYQNGGCEHICKKRLGTAWCSCREGFMKASDGKTCLALDGHQLLAGGEVDLKNQVTPLDILSKTRVSEDNITESQHMLVAEIMVSDQDDCAPVGCSMYARCISEGEDATCQCLKGFAGDGKLCSDIDECEMGVPVCPPASSKCINTEGGYVCRCSEGYQGDGIHCLDIDECQLGEHSCGENASCTNTEGGYTCMCAGRLSEPGLICPDSTPPPHLREDDHHYSVRNSDSECPLSHDGYCLHDGVCMYIEALDKYACNCVVGYIGERCQYRDLKWWELRHAGHGQQQKVIVVAVCVVVLVMLLLLSLWGAHYYRTQKLLSKNPKNPYEESSRDVRSRRPADTEDGMSSCPQPWFVVIKEHQDLKNGGQPVAGEDGQAADGSMQPTSWRQEPQLCGMGTEQGCWIPVSSDKGSCPQVMERSFHMPSYGTQTLEGGVEKPHSLLSANPLWQQRALDPPHQMELTQ | −1.7729 | 
2 | GM-CSF-R-alpha (protein, UniProt P15509 23-400, looked up) Granulocyte-macrophage …: EKSDLRTVAPASSLNVRFDSRTMNLSWDCQENTTFSKCFLTDKKNRVVEPRLSNNECSCTFREICLHEGVTFEVHVNTSQRGFQQKLLYPNSGREGTAAQNFSCFIYNADLMNCTWARGPTAPRDVQYFLYIRNSKRRREIRCPYYIQDSGTHVGCHLDNLSGLTSRNYFLVNGTSREIGIQFFDSLLDTKKIERFNPPSNVTVRCNTTHCLVRWKQPRTYQKLSYLDFQYQLDVHRKNTQPGTENLLINVSGDLENRYNFPSSEPRAKHSVKIRAADVRILNWSSWSEAIEFGSDDGNLGSVYIYVLLIVGTLVCGIVLGFLFKRFLRIQRLFPPVPQIKDKLNDNHEVEDEIIWEEFTPEEGKGYREEVLTVKEIT | −1.4489 | 
3 | TDRKH (protein, UniProt Q9Y2W6 1-561, looked up) Tudor and KH …: MSTERTSWTSLSTIQKIALGLGIPASATVAYILYRRYRESREERLTFVGEDDIEIEMRVPQEAVKLIIGRQGANIKQLRKQTGARIDVDTEDVGDERVLLISGFPVQVCKAKAAIHQILTENTPVSEQLSVPQRSVGRIIGRGGETIRSICKASGAKITCDKESEGTLLLSRLIKISGTQKEVAAAKHLILEKVSEDEELRKRIAHSAETRVPRKQPISVRREDMTEPGGAGEPALWKNTSSSMEPTAPLVTPPPKGGGDMAVVVSKEGSWEKPSDDSFQKSEAQAIPEMPMFEIPSPDFSFHADEYLEVYVSASEHPNHFWIQIVGSRSLQLDKLVNEMTQHYENSVPEDLTVHVGDIVAAPLPTNGSWYRARVLGTLENGNLDLYFVDFGDNGDCPLKDLRALRSDFLSLPFQAIECSLARIAPSGDQWEEEALDEFDRLTHCADWKPLVAKISSYVQTGISTWPKIYLYDTSNGKKLDIGLELVHKGYAIELPEDIEENRAVPDMLKDMATETDASLSTLLTETKKSSGEITHTLSCLSLSEAASMSGDDNLEDDYLL | −1.2785 | 
4 | GZMH (protein, UniProt P20718 21-246, looked up) Granzyme H: IIGGHEAKPHSRPYMAFVQFLQEKSRKRCGGILVRKDFVLTAAHCQGSSINVTLGAHNIKEQERTQQFIPVKRPIPHPAYNPKNFSNDIMLLQLERKAKWTTAVRPLRLPSSKAQVKPGQLCSVAGWGYVSMSTLATTLQEVLLTVQKDCQCERLFHGNYSRATEICVGDPKKTQTGFKGDSGGPLVCKDVAQGILSYGNKKGTPPGVYIKVSHFLPWIKRTMKRL | −1.494 | 
5 | GSAP (protein, UniProt A4D1B5 1-854, looked up) Gamma-secretase-activating …: MALRLVADFDLGKDVLPWLRAQRAVSEASGAGSGGADVLENDYESLHVLNVERNGNIIYTYKDDKGNVVFGLYDCQTRQNELLYTFEKDLQVFSCSVNSERTLLAASLVQSTKEGKRNELQPGSKCLTLLVEIHPVNNVKVLKAVDSYIWVQFLYPHIESHPLPENHLLLISEEKYIEQFRIHVAQEDGNRVVIKNSGHLPRDRIAEDFVWAQWDMSEQRLYYIDLKKSRSILKCIQFYADESYNLMFEVPLDISLSNSGFKLVNFGCDYHQYRDKFSKHLTLCVFTNHTGSLCVCYSPKCASWGQITYSVFYIHKGHSKTFTTSLENVGSHMTKGITFLNLDYYVAVYLPGHFFHLLNVQHPDLICHNLFLTGNNEMIDMLPHCPLQSLSGSLVLDCCSGKLYRALLSQSSLLQLLQNTCLDCEKMAALHCALYCGQGAQFLEAQIIQWISENVSACHSFDLIQEFIIASSYWSVYSETSNMDKLLPHSSVLTWNTEIPGITLVTEDIALPLMKVLSFKGYWEKLNSNLEYVKYAKPHFHYNNSVVRREWHNLISEEKTGKRRSAAYVRNILDNAVKVISNLEARNLGPRLTPLLQEEDSHQRLLMGLMVSELKDHFLRHLQGVEKKKIEQMVLDYISKLLDLICHIVETNWRKHNLHSWVLHFNSRGSAAEFAVFHIMTRILEATNSLFLPLPPGFHTLHTILGVQCLPLHNLLHCIDSGVLLLTETAVIRLMKDLDNTEKNEKLKFSIIVRLPPLIGQKICRLWDHPMSSNIISRNHVTRLLQNYKKQPRNSMINKSSFSVEFLPLNYFIEILTDIESSNQALYPFEGHDNVDAEFVEEAALKHTAMLLGL | −1.4153 | 
6 | FADD (protein, UniProt Q13158 1-208, looked up) FAS-associated death domain …: MDPFLVLLHSVSSSLSSSELTELKFLCLGRVGKRKLERVQSGLDLFSMLLEQNDLEPGHTELLRELLASLRRHDLLRRVDDFEAGAAAGAAPGEEDLCAAFNVICDNVGKDWRRLARQLKVSDTKIDSIEDRYPRNLTERVRESLRIWKNTEKENATVAHLVGALRSCQMNLVADLVQEVQQARDLQNRSGAMSPMSWNSDASTSEAS | −1.546 | 
7 | CD40-L (protein, UniProt P29965 113-261, looked up) CD40 ligand, soluble form: MQKGDQNPQIAAHVISEASSKTTSVLQWAEKGYYTMSNNLVTLENGKQLTVKRQGLYYIYAQVTFCSNREASSQAPFIASLCLKSPGRFERILLRAANTHSSAKPCGQQSIHLGGVFELQPGASVFVNVTDPSQVSHGTGFTSFGLLKL | −1.5868 | 
8 | VEGFC (protein, UniProt P49767 112-227, looked up) Vascular endothelial growth …: AHYNTEILKSIDNEWRKTQCMPREVCIDVGKEFGVATNTFFKPPCVSVYRCGGCCNSEGLQCMNTSTSYLSKTLFEITVPLSQGPKPVTISFANHTSCRCMSKLDVYRQVHSIIRR | −1.1727 | 
9 | PILRB (protein, UniProt Q9UKJ0 20-227, looked up) Paired immunoglobulin-like …: QPGGSTGSGPSYLYGVTQPKHLSASMGGSVEIPFSFYYPWELAIVPNVRISWRRGHFHGQSFYSTRPPSIHKDYVNRLFLNWTEGQESGFLRISNLRKEDQSVYFCRVELDTRRSGRQQLQSIKGTKLTITQAVTTTTTWRPSSTTTIAGLRVTESKGHSESWHLSLDTAIRVALAVAVLKTVILGLLCLLLLWWRRRKGSRAPSSDF | −1.3019 | 
10 | FCRL1 (protein, UniProt Q96LA6 17-429, looked up) Fc receptor-like protein 1: AELFLIASPSHPTEGSPVTLTCKMPFLQSSDAQFQFCFFRDTRALGPGWSSSPKLQIAAMWKEDTGSYWCEAQTMASKVLRSRRSQINVHRVPVADVSLETQPPGGQVMEGDRLVLICSVAMGTGDITFLWYKGAVGLNLQSKTQRSLTAEYEIPSVRESDAEQYYCVAENGYGPSPSGLVSITVRIPVSRPILMLRAPRAQAAVEDVLELHCEALRGSPPILYWFYHEDITLGSRSAPSGGGASFNLSLTEEHSGNYSCEANNGLGAQRSEAVTLNFTVPTGARSNHLTSGVIEGLLSTLGPATVALLFCYGLKRKIGRRSARDPLRSLPSPLPQEFTYLNSPTPGQLQPIYENVNVVSGDEVYSLAYYNQPEQESVAAETLGTHMEDKVSLDIYSRLRKANITDVDYEDAM | −1.3733 | 
11 | LYVE1 (protein, UniProt Q9Y5Y7 20-322, looked up) Lymphatic vessel endothelial …: LVQGSLRAEELSIQVSCRIMGITLVSKKANQQLNFTEAKEACRLLGLSLAGKDQVETALKASFETCSYGWVGDGFVVISRISPNPKCGKNGVGVLIWKVPVSRQFAAYCYNSSDTWTNSCIPEIITTKDPIFNTQTATQTTEFIVSDSTYSVASPYSTIPAPTTTPPAPASTSIPRRKKLICVTEVFMETSTMSTETEPFVENKAAFKNEAAGFGGVPTALLVLALLFFGAAAGLGFCYVKRYVKAFPFTNKNQQKEMIETKVVKEEKANDSNPNEESKKTDKNPEESKSPSKTTVRCLEAEV | −1.227 | 
12 | CLEC6A (protein, UniProt Q6EIG7 1-209, looked up) C-type lectin domain family 6 …: MMQEQQPQSTEKRGWLSLRLWSVAGISIALLSACFIVSCVVTYHFTYGETGKRLSELHSYHSSLTCFSEGTKVPAWGCCPASWKSFGSSCYFISSEEKVWSKSEQNCVEMGAHLVVFNTEAEQNFIVQQLNESFSYFLGLSDPQGNNNWQWIDKTPYEKNVRFWHLGEPNHSAEQCASIVFWKPTGWGWNDVICETRRNSICEMNKIYL | −1.3248 | 
13 | FABP4 (protein, UniProt P15090 2-132, looked up) Fatty acid-binding protein, …: CDAFVGTWKLVSSENFDDYMKEVGVGFATRKVAGMAKPNMIISVNGDVITIKSESTFKNTEISFILGQEFDEVTADDRKVKSTITLDGGVLVHVQKWDGKSTTIKRKREDDKLVVECVMKGVTSTRVYERA |  | 1.6926
